The target of test [1] is T1, API5(Apoptosis inhibitor protein 5) 단백질, Expi293 세포에서 일시발현 후 정제 (human, UniProt Q9BZZ5-2 1-504).
T1 construct: also called rhAPI5; AAC-11
T1 sequence: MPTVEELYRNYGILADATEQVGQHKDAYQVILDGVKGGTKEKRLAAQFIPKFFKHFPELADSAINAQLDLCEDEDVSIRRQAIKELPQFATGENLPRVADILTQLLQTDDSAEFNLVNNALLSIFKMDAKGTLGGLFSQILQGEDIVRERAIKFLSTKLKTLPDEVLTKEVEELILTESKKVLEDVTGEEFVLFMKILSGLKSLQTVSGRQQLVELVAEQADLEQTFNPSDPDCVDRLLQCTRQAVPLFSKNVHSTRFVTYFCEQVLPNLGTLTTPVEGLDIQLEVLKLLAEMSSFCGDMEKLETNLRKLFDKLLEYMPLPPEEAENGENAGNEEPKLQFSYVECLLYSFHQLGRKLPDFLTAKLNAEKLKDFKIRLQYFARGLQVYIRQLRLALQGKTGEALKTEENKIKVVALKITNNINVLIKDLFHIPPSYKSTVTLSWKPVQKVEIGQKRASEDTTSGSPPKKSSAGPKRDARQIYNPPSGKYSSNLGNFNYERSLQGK
The test is described as follows: ELISA, 3F2 serially diluted 3.125-200 nM (8 points including 0 nM).

The target of test [2] is T1, API5(Apoptosis inhibitor protein 5) …. The test is described as follows: SPR, Biacore T200, 3F2 serially diluted 3.125-100 nM (7 points including 0 nM). (In general: In SPR one partner is held on a chip, and binding of the other changes the refractive index at the surface.)

B1: 3F2 항체 (API5 표적 인간 항체 3F2) (antibody, V domains shown)
VH: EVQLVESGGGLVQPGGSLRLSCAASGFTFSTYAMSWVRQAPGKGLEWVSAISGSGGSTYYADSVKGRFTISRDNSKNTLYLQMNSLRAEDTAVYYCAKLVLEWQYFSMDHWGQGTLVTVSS
VL: DIQMTQSPSSLSASVGDRVTITCRASQSISRYLNWYQQKPGKAPKLLIYAASTLQSGVPSRFSGSGSGTDFTLTISSLQPEDFATYYCQQSYSFPWTFGQGTKVEIK
notes: Purified 3F2 antibody as used in the ELISA and SPR; IgG is used as the control in later experiments; also called API5 항체 3F2; 3F2 antibody
What is called Kd is the equilibrium constant for the complex coming apart. In the case of B1, the results for the Kd in test [1] and in test [2] were 1.2 nM and 4.62 nM, respectively.

For the origin of these results see KR20230022334A (dated 2023).
